We go through four molecules from patent publication US6596319B2, “Immunomodulating compositions for treatment of immune system disorders” (Lorus Therapeutics Inc., priority 2001, dated 2003).

Where two headings read alike, the source gives them in different places.

Series [1] deals with Chang hepatoma cells. The experiment in a line: Monocyte/Macrophage Cytotoxicity Assay to cell line (51Cr release). To be noted: peripheral blood monocytes from cancer patients; activator + Indomethacin (up to 5 ng/ml).
Series [2] deals with peritoneal macrophages. Nature of the series: In vitro stimulation of protease peptone peritoneal macrophages: TNF (ELISA). The conditions noted are these: stimulant alone; 24 hours of in vitro culture. It is filed as cell-based, C57BL/6 mice. How it is done: (§1) Peritoneal macrophages were harvested from C57BL/6 mice 72 hours after intraperitoneal injection of 1.5 ml of 4% protease peptone. The macrophages were then stimulated in vitro with medium alone, 50 ng LPS, or VIRULIZIN™. Measurements of the stimulation was done with respect to TNF (by ELISA) and NO (by spectrophotometric assay using the Greiss reagent) levels in duplicate experiments. Standard error of the mean between duplicate experiments was less than 10%. […] Nitric oxide production was zero.
In vitro synergy of Virulizin™ with LPS for TNF-α release was also addressed. Peritoneal macrophages were harvested from C57BL/6 mice after the same aforementioned treatment. The macrophages were then stimulated with 50 ng LPS alone or LPS with different dilutions of VIRULIZIN™. As above, TNF was determined via ELISA. As noted in Table XIX, LPS alone induces about 2900 pg/ml of TNF-α release from mouse peritoneal macrophages in vitro compared to 262 pg/ml for medium. When LPS is combined with VIRULIZIN™, there is about an 800 pg/ml increase in TNF-alpha release at dilutions of VIRULIZIN™ 1:5 and 1:10 and enhanced release to at least 1:40.
In vitro synergy of Virulizin™ with IFN-γ for TNF-α release was studied, using the same peritoneal mouse macrophages derived from C57BL/6 mice treated as above. […] The same macrophages stimulated with either LPS or IFN-γ release almost 3000 pg/ml of TNF-α. […]

The subject of series [3] is peritoneal macrophages. Nature of the series: TNF release from macrophages harvested from treated mice. It is filed as in vivo, C57BL/6 mice. To be noted: mice injected with nothing; in vitro stimulant IFN-γ, 24 hours. As to the method:
(§2) In vivo production of TNF-α over 72 hours was studied on macrophages harvested from C57BL/6 mice that, prior to harvest, were treated with nothing, injected intraperitoneally 72 hours previously with 1.5 and 4% protease peptone, or injected intraperitoneally 72, 48, or 24 hours previously with 1.0 ml Virulizin™ diluted 1:10 in PBS. The macrophage monolayers were treated in vitro for 24 hours with IFN-γ (50 μ/ml), LPS only (5 ng/ml), or the combination thereof. TNF and NO were determined as recited above.
As described, the release of TNF-α from macrophages was examined in the absence of a stimulus or with IFN-γ, LPS, or LPS/IFN-γ after 24 hrs in vitro culture. […] Likewise, there was a synergistic effect of LPS and IFN-γ on harvested macrophages that were stimulated 24 and 48 hrs but not 72 hrs before testing.

Series [4] has as its system peritoneal macrophages. The experiment in a line: In vitro stimulation of protease peptone peritoneal macrophages: NO (Greiss reagent). The conditions noted are these: stimulant alone. It is filed as cell-based, C57BL/6 mice. How it is done: as §1
In vitro synergy of Virulizin™ with LPS for nitric oxide (NO) was addressed in the same procedure as above, except NO was determined in the supernatant of the treated macrophages. As above, the assay for NO is spectrophotometric and uses a Greiss reagent. As noted in the table above, LPS causes some release of NO (9 μm). VIRULIZIN™ in synergy with LPS induces a marked increase in NO production (13-27 μm) to dilutions of 1:40.
In vitro synergy of Virulizin™ with IFN-γ for NO release was studied, using the same peritoneal mouse macrophages derived from C57BL/6 mice treated as above. The data are included in the table above concerning “Synergistic Combinations.” As shown, LPS and IFN-γ alone each enhanced NO production (9 and 7 μm, respectively). VIRULIZIN™ added to IFN-γ induced a marked increase in NO production (47-57 μm) that almost equaled the combination of LPS and IFN-γ (74 μM). […]

In series [5] the test system is peritoneal macrophages. The experiment in a line: NO release from macrophages harvested from treated mice. It is filed as in vivo, C57BL/6 mice. The conditions noted are these: mice injected with nothing; in vitro stimulant IFN-γ. As to the method:
as §2
In vivo production of NO over 72 hrs was studied with macrophage cells and tests under the same conditions described above with respect to TNF-α production. There was a small spontaneous release of NO measured at 24 and 48 hrs after intraperitoneal injection of VIRULIZIN™ (hereinafter IP Virulizin™). […] The harvested macrophages that had received IP VIRULIZIN™ 72 hrs before responded no differently than macrophages that had no VIRULIZIN™ pretreatment. […] The maximum response was with macrophages pretreated with VIRULIZIN™ 48 hrs before harvesting and testing.

Series [6] concerns autologous tumor cells.
Description: The method requires isolation of monocytes/macrophages phages, which is accomplished as follows: Venous blood is collected aseptically in heparinized Vacutainer tubes. Sterile preservative-free heparin is added to a final concentration of 20 units/ml. The blood is diluted 3:1 in Hanks balanced salt solution (HBSS), layered onto lymphocyte separation medium and centrifuged to obtain a band of peripheral blood mononuclear cells (PBMNs). After centrifugation, the mononuclear cell layer is recovered from the interface, washed twice in medium (medium is Roswell Park Memorial Institute [RPMI] 1640 media supplemented with 10% heat-inactivated fetal bovine serum, 50 units/ml penicillin, and 50 μg/ml streptomycin) and monocytes are enumerated by latex ingestion. Monocytes are isolated by adherence in 96-well plastic plates (for 2 hours at 37° C., followed by two cycles of washing with medium). Adherent cells are estimated to be greater than 90% monocytes. […] The tumor cells are maintained in medium in which endotoxin concentration is guaranteed by the manufacturer to be low and is non-stimulatory in the assay.
For studies using autologous tumor cells, these cells are obtained from surgical biopsies, labelled with ^51C, and used in the same way as the hepatoma cells described above. […]
Series [7] deals with Chang hepatoma cells.
Description: This procedure has been named the “Monocyte/Macrophage Cytotoxicity Assay to Cell Lines and Autologous Tumor Cells,” or “Cytotoxicity Assay” for short.
The method requires isolation of monocytes/macrophages phages, which is accomplished as follows: Venous blood is collected aseptically in heparinized Vacutainer tubes. Sterile preservative-free heparin is added to a final concentration of 20 units/ml. The blood is diluted 3:1 in Hanks balanced salt solution (HBSS), layered onto lymphocyte separation medium and centrifuged to obtain a band of peripheral blood mononuclear cells (PBMNs). After centrifugation, the mononuclear cell layer is recovered from the interface, washed twice in medium (medium is Roswell Park Memorial Institute [RPMI] 1640 media supplemented with 10% heat-inactivated fetal bovine serum, 50 units/ml penicillin, and 50 μg/ml streptomycin) and monocytes are enumerated by latex ingestion. Monocytes are isolated by adherence in 96-well plastic plates (for 2 hours at 37° C., followed by two cycles of washing with medium). […]
For studies using a standard cell line, ^51Cr (chromium) labelled Chang hepatoma cells are used because this cell line is insensitive to natural killer cell cytotoxicity. […] After 24 hours, supernatants are collected and ^51Cr release is quantitated. The percent specific cytotoxicity is calculated as: [formula] […]

Turning to “GM-CSF: granulocyte macrophage colony stimulating factor”, the “% Cytotoxicity” value in series [1] was 17.8 ± 8%.

On to IFN-γ: gamma interferon, for which, in series [2], the TNF-α release is approximately 3000 pg/mL. Besides, in series [3], the TNF amounted to 402 pg/mL. For the same molecule, the NO production in series [4] is on record as 7 μm. The NO in series [5] was found to be 25.8 ± 1.6 µM.

Interleukin-12: interleukin-12: the “% Tumor Cytotoxicity (E/T = 15/1)” value in series [6] came to 11%.

B1: Monocyte-CSF: monocyte colony stimulating factor (protein, UniProt P09603 33-554, looked up)
Macrophage colony-stimulating …: EEVSEYCSHMIGSGHLQSLQRLIDSQMETSCQITFEFVDQEQLKDPVCYLKKAFLLVQDIMEDTMRFRDNTPNAIAIVQLQELSLRLKSCFTKDYEEHDKACVRTFYETPLQLLEKVKNVFNETKNLLDKDWNIFSKNCNNSFAECSSQDVVTKPDCNCLYPKAIPSSDPASVSPHQPLAPSMAPVAGLTWEDSEGTEGSSLLPGEQPLHTVDPGSAKQRPPRSTCQSFEPPETPVVKDSTIGGSPQPRPSVGAFNPGMEDILDSAMGTNWVPEEASGEASEIPVPQGTELSPSRPGGGSMQTEPARPSNFLSASSPLPASAKGQQPADVTGTALPRVGPVRPTGQDWNHTPQKTDHPSALLRDPPEPGSPRISSLRPQGLSNPSTLSAQPQLSRSHSSGSVLPLGELEGRRSTRDRRSPAEPEGGPASEGAARPLPRFNSVPLTDTGHERQSEGSFSPQLQESVFHLLVPSVILVLLAVGGLLFYRWRRRSHQEPQRADSPLEQPEGSPLTQDDRQVELPV
As for B1, in series [7], the “% Cytotoxicity” value amounted to 14.31 ± 3%. The “% Tumor Cytotoxicity (E/T = 15/1)” value in series [6] is on record as 3%.
